Data published in patent US20230038866.
Read-outs that look alike come from different tables or passages of the source.

Assays:
[1] = biological target: membrane-bound immunoglobulin heavy mu chain (B-cell receptor, IgM) on Ramos lymphoma cells (Homo sapiens) (UniProt P01871); conditions: confocal staining of Ramos xenograft brain slices, 1.0 uM, 10 min on ice, 6 mM MgCl2, 1.2 mM CaCl2, PBS, yeast tRNA; U251 glioma 0.81% and normal brain 0.80% …
[2] = biological target: membrane-bound immunoglobulin heavy mu chain (B-cell receptor, IgM) on Ramos lymphoma cells (Homo sapiens) (UniProt P01871); conditions: confocal staining of Ramos xenograft brain slices, 1.0 uM, 10 min; target not purified

UniProt P01871, sequence (P01871 1-450): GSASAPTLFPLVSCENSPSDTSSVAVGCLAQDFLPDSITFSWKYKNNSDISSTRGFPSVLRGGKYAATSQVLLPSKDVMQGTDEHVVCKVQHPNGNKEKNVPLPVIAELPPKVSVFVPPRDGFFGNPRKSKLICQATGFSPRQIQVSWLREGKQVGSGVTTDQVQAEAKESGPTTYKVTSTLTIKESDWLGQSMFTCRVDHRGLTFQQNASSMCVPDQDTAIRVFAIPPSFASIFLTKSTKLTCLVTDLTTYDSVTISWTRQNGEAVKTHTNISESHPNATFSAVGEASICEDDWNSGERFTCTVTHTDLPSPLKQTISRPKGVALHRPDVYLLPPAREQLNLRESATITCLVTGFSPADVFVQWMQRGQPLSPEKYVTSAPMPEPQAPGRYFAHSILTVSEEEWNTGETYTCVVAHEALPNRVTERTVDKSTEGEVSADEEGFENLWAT

Row | Substance | binding (% cells labeled) [1] | binding (% cells labeled) [2]
1 | AGGAGGATAGTTCGGTGGCTGTTCAGGGTCTCCTCCT [TD05-488] | 76.7 | –
2 | nonspecific Alexa Fluor 488 aptamer | – | 2.71
